# Results reported in the supplement of paper PMC9112550, “Optimization of the antimicrobial peptide Bac7 by deep mutational scanning” (BMC Biology, 2022).
# System: Escherichia coli TOP10
# Assay: shrunken log2 fold change of peptide-encoding DNA abundance (4.5 h post-induction vs induction); higher = less antimicrobial activity (less host growth inhibition)
# Details: time post-induction: 4.5 h; library: site-saturation at positions 5, 18, 19, 20
# 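Note: peptides expressed intracellularly from a pBAD plasmid library in pooled LB shake-flask culture, induced with 0.3% L-arabinose, DNA abundance read by NGS, three biological replicates, DESeq2 with apeglm shrinkage.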
row,Sequence,shrunken log2 fold change
1,RRIRYRPPRLPRPRPRPVKLPRP,0.0698
2,RRIRMRPPRLPRPRPRPITYPRP,-0.0199
3,RRIRDRPPRLPRPRPRPGMSPRP,0.0134
4,RRIRPRPPRLPRPRPRPMMYPRP,-0.198
5,RRIRIRPPRLPRPRPRPVTFPRP,-0.00574
6,RRIRQRPPRLPRPRPRPLFQPRP,0.866
7,RRIRNRPPRLPRPRPRPPGRPRP,0.769
8,RRIRWRPPRLPRPRPRPSKLPRP,-0.315
9,RRIRQRPPRLPRPRPRPSTAPRP,0.0789
10,RRIRCRPPRLPRPRPRPWWQPRP,0.0101
11,RRIRKRPPRLPRPRPRPGIYPRP,0.107
12,RRIRYRPPRLPRPRPRPIHYPRP,-0.655
13,RRIRYRPPRLPRPRPRPCVEPRP,-0.0115
14,RRIRDRPPRLPRPRPRPGLHPRP,-6.57e-05
15,RRIRYRPPRLPRPRPRPCAHPRP,-0.0966
16,RRIRHRPPRLPRPRPRPNAPPRP,0.0964
17,RRIRSRPPRLPRPRPRPEMRPRP,0.84
18,RRIRDRPPRLPRPRPRPIAHPRP,0.41
19,RRIRDRPPRLPRPRPRPWLMPRP,-0.1
20,RRIRPRPPRLPRPRPRPPPVPRP,0.744
21,RRIRDRPPRLPRPRPRPGSDPRP,0.461
22,RRIRVRPPRLPRPRPRPTLTPRP,-0.0107
23,RRIRVRPPRLPRPRPRPNNYPRP,-0.726
24,RRIRQRPPRLPRPRPRPQLWPRP,-0.135
25,RRIRERPPRLPRPRPRPYYSPRP,-0.0755

row,Sequence,shrunken log2 fold change
1,RRIRLRPPRLPRPRPRPGFPPRP,-0.2
2,RRIRWRPPRLPRPRPRPGEKPRP,0.489
3,RRIRIRPPRLPRPRPRPPKQPRP,-0.158
4,RRIRYRPPRLPRPRPRPQQQPRP,0.00548
5,RRIRPRPPRLPRPRPRPKHYPRP,-0.529
6,RRIRDRPPRLPRPRPRPPFRPRP,0.126
7,RRIRNRPPRLPRPRPRPNPHPRP,-0.116
8,RRIRPRPPRLPRPRPRPHFSPRP,-0.108
9,RRIRNRPPRLPRPRPRPMNHPRP,0.0515
10,RRIRYRPPRLPRPRPRPRCGPRP,-0.0223
11,RRIRARPPRLPRPRPRPITYPRP,-0.0353
12,RRIRCRPPRLPRPRPRPLTIPRP,-0.66
13,RRIRTRPPRLPRPRPRPTEEPRP,0.12
14,RRIRLRPPRLPRPRPRPAVKPRP,-0.131
15,RRIRNRPPRLPRPRPRPGRLPRP,-0.0294
16,RRIRMRPPRLPRPRPRPRMLPRP,0.465
17,RRIRRRPPRLPRPRPRPWFSPRP,-0.0902
18,RRIRHRPPRLPRPRPRPAHCPRP,0.115
19,RRIRFRPPRLPRPRPRPEIGPRP,-0.0537
20,RRIRQRPPRLPRPRPRPLFNPRP,-0.367
21,RRIRHRPPRLPRPRPRPLSCPRP,-0.287
22,RRIRVRPPRLPRPRPRPFDLPRP,-0.24
23,RRIRCRPPRLPRPRPRPRKRPRP,0.456
24,RRIRLRPPRLPRPRPRPPSIPRP,-0.0597
25,RRIRSRPPRLPRPRPRPRCSPRP,0.0579

row,Sequence,shrunken log2 fold change
1,RRIRQRPPRLPRPRPRPGMEPRP,0.0952
2,RRIRNRPPRLPRPRPRPPPHPRP,0.794
3,RRIRFRPPRLPRPRPRPMSAPRP,-0.105
4,RRIRNRPPRLPRPRPRPEDMPRP,-0.0541
5,RRIRYRPPRLPRPRPRPQIMPRP,-0.705
6,RRIRTRPPRLPRPRPRPMFPPRP,0.0617
7,RRIRQRPPRLPRPRPRPQQTPRP,0.178
8,RRIRLRPPRLPRPRPRPAEYPRP,-0.0275
9,RRIRDRPPRLPRPRPRPDTEPRP,0.0738
10,RRIRSRPPRLPRPRPRPIWIPRP,-0.0851
11,RRIRCRPPRLPRPRPRPCLCPRP,-0.185
12,RRIRKRPPRLPRPRPRPCKCPRP,0.0183
13,RRIRNRPPRLPRPRPRPLLKPRP,-0.539
14,RRIRQRPPRLPRPRPRPNLDPRP,0.0163
15,RRIRTRPPRLPRPRPRPMWWPRP,-0.0168
16,RRIRRRPPRLPRPRPRPWQVPRP,0.0694
17,RRIRIRPPRLPRPRPRPDVQPRP,-0.192
18,RRIRKRPPRLPRPRPRPPFNPRP,0.0386
19,RRIRERPPRLPRPRPRPTGFPRP,-0.00436
20,RRIRPRPPRLPRPRPRPCSCPRP,-0.516
21,RRIRTRPPRLPRPRPRPTNSPRP,-0.334
22,RRIRSRPPRLPRPRPRPEFKPRP,0.00218
23,RRIRQRPPRLPRPRPRPWMPPRP,-0.167
24,RRIRTRPPRLPRPRPRPIMKPRP,-0.253
25,RRIRTRPPRLPRPRPRPVPNPRP,0.123

row,Sequence,shrunken log2 fold change
1,RRIRGRPPRLPRPRPRPSDRPRP,0.137
2,RRIRMRPPRLPRPRPRPIQHPRP,-0.124
3,RRIRPRPPRLPRPRPRPGKDPRP,0.0142
4,RRIRPRPPRLPRPRPRPDKMPRP,0.0748
5,RRIRFRPPRLPRPRPRPMPAPRP,0.283
6,RRIRYRPPRLPRPRPRPYTNPRP,-1.35
7,RRIRKRPPRLPRPRPRPMLYPRP,-0.26
8,RRIRNRPPRLPRPRPRPEHHPRP,-0.114
9,RRIRERPPRLPRPRPRPRHEPRP,-0.304
10,RRIRTRPPRLPRPRPRPTIGPRP,-0.000966
11,RRIRCRPPRLPRPRPRPSPVPRP,0.00196
12,RRIRNRPPRLPRPRPRPMWRPRP,-0.0211
13,RRIRTRPPRLPRPRPRPWMFPRP,-0.355
14,RRIRERPPRLPRPRPRPTSFPRP,0.0302
15,RRIRGRPPRLPRPRPRPDHIPRP,0.199
16,RRIRLRPPRLPRPRPRPRADPRP,2.32
17,RRIRTRPPRLPRPRPRPQRIPRP,-0.131
18,RRIRGRPPRLPRPRPRPTGYPRP,0.559
19,RRIRDRPPRLPRPRPRPKDTPRP,0.0607
20,RRIRNRPPRLPRPRPRPYFCPRP,-0.5
21,RRIRCRPPRLPRPRPRPYWPPRP,-0.158
22,RRIRRRPPRLPRPRPRPPGVPRP,0.704
23,RRIRDRPPRLPRPRPRPKRMPRP,0.0969
24,RRIRMRPPRLPRPRPRPTYMPRP,-0.131
25,RRIRPRPPRLPRPRPRPRILPRP,0.0605

row,Sequence,shrunken log2 fold change
1,RRIRQRPPRLPRPRPRPNHLPRP,-1.03
2,RRIRDRPPRLPRPRPRPRWCPRP,0.33
3,RRIRSRPPRLPRPRPRPLYQPRP,-0.339
4,RRIRRRPPRLPRPRPRPNCMPRP,0.0934
5,RRIRNRPPRLPRPRPRPTEEPRP,-0.00968
6,RRIRERPPRLPRPRPRPGESPRP,-0.0304
7,RRIRLRPPRLPRPRPRPIKHPRP,-0.821
8,RRIRVRPPRLPRPRPRPFRAPRP,-0.0855
9,RRIRIRPPRLPRPRPRPACQPRP,0.0224
10,RRIRRRPPRLPRPRPRPIQGPRP,-0.00136
11,RRIRMRPPRLPRPRPRPMPDPRP,0.716
12,RRIRYRPPRLPRPRPRPSRRPRP,0.0397
13,RRIRIRPPRLPRPRPRPGPIPRP,-0.329
14,RRIRWRPPRLPRPRPRPWTCPRP,0.0612
15,RRIRIRPPRLPRPRPRPVELPRP,-0.0129
16,RRIRFRPPRLPRPRPRPEEHPRP,-0.0677
17,RRIRCRPPRLPRPRPRPGERPRP,0.01
18,RRIRKRPPRLPRPRPRPRVKPRP,-0.0843
19,RRIRDRPPRLPRPRPRPCYGPRP,-0.0515
20,RRIRWRPPRLPRPRPRPDLFPRP,0.133
21,RRIRYRPPRLPRPRPRPAKQPRP,-0.168
22,RRIRYRPPRLPRPRPRPFCVPRP,-0.264
23,RRIRKRPPRLPRPRPRPQAFPRP,-0.0237
24,RRIRKRPPRLPRPRPRPDARPRP,-0.0173
25,RRIRMRPPRLPRPRPRPWYFPRP,-0.282

row,Sequence,shrunken log2 fold change
1,RRIRKRPPRLPRPRPRPMEIPRP,0.155
2,RRIRNRPPRLPRPRPRPLGQPRP,0.0394
3,RRIRMRPPRLPRPRPRPEPIPRP,0.0584
4,RRIRWRPPRLPRPRPRPDGRPRP,-0.00151
5,RRIRLRPPRLPRPRPRPKSNPRP,-0.172
6,RRIRCRPPRLPRPRPRPVAMPRP,-0.125
7,RRIRLRPPRLPRPRPRPKYEPRP,-0.0397
8,RRIRWRPPRLPRPRPRPDWLPRP,0.111
9,RRIRTRPPRLPRPRPRPNHHPRP,-0.687
10,RRIRNRPPRLPRPRPRPSSSPRP,-0.0202
11,RRIRERPPRLPRPRPRPNMIPRP,-0.272
12,RRIRPRPPRLPRPRPRPDAHPRP,0.209
13,RRIRYRPPRLPRPRPRPGGHPRP,-0.278
14,RRIRCRPPRLPRPRPRPQDMPRP,0.0633
15,RRIRSRPPRLPRPRPRPCVFPRP,-0.112
16,RRIRGRPPRLPRPRPRPTDMPRP,1.1
17,RRIRRRPPRLPRPRPRPFHYPRP,-0.259
18,RRIRTRPPRLPRPRPRPRDSPRP,0.538
19,RRIRMRPPRLPRPRPRPGCNPRP,0.00293
20,RRIRWRPPRLPRPRPRPGGVPRP,0.427
21,RRIRFRPPRLPRPRPRPVWHPRP,-0.0142
22,RRIRGRPPRLPRPRPRPPWQPRP,0.691
23,RRIRIRPPRLPRPRPRPWMAPRP,-0.547
24,RRIRPRPPRLPRPRPRPFKMPRP,-0.384
25,RRIRKRPPRLPRPRPRPPLHPRP,0.694
